Reference: patent US20150037340A1 (PEIRRE FABRE MEDICAMENT, published 2015)

Key:
[1] = biological target: T1, recombinant human Axl-Fc (R and D Systems, cat No 154-AL / 154AL/CF) (human, UniProt P30530 26-451); experiment: competition ELISA: rhAxl-Fc pre-incubated with the antibody, loaded on coated rhGas6 (blocked ligand), bound rhAxl-Fc detected with anti-human IgG-HRP
T1 construct: Bought protein; also called rhAxl-Fc; rh Axl-Fc protein; not shown: human IgG Fc portion (detected with anti-human IgG Fc)
T1 sequence: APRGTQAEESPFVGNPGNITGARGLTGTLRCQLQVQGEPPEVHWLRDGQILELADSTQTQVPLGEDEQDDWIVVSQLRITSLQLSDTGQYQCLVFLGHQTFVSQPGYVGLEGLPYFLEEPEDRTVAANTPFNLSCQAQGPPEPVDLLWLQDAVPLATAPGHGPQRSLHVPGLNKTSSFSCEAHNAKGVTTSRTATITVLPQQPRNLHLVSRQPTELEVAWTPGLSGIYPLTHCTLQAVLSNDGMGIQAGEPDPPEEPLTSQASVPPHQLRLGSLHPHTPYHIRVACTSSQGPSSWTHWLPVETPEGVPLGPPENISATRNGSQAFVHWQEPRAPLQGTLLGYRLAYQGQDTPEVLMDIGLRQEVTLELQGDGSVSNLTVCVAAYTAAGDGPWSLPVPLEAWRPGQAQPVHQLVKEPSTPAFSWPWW
Description: To further characterize the 1613F12, Gas6 competition assays were performed. In this assay, the free rhAxl-Fc protein and the 1613F12 are incubated to form antigen-antibody complex and then the complexes are loaded on Gas6-coated surface in the assay plate. The unbound antibody-antigen complexes are washed out before adding enzyme-linked secondary antibody against the human Fc portion of the rhAxl-Fc protein. The substrate is then added and the antigen concentration can be determined by the signal strength elicited by the enzyme-substrate reaction.
Briefly reaction mixture comprising the rhAxl-Fc protein in the presence or not of the anti-Axl Mabs to be tested, are prepared on a separate saturated (0.5% gelatin in PBS 1×) plate. Serial 1: 2 dilutions (starting from 80 μg/ml on 12 columns) of murine anti-Axl antibodies are performed. […] After homogenisation, the competition samples are loaded on Gas6-coated plates with a 6 μg/m rhGas6 solution in PBS (R and D Systems cat No 885-GS-CS/CF). After incubation and several washes, bound rhAxl-Fc proteins are detected using a goat anti-Human IgG-HRP (Jackson, ref. 109-035-098). Once bound, the TMB substrate is added to the plates. The reaction is stopped by addition of 1M H₂SO₄ acid solution and the obtained optical densities read at 450 nm using a microplate reader instrument.

[2] = biological target: T1, recombinant human Axl-Fc (R and D …); experiment: sandwich ELISA: plate coated with the antibody, rhAxl-Fc titrated (the axis on the sheet reads 'Ab concentration'), detection with a biotinylated anti-Axl antibody and avidin-HRP
Description: First ELISA experiments were realized. In the assay, 96 well plates (Immulon II, Thermo Fisher) were coated with a 5 μg/m of the 1613F12 solution in 1×PBS, overnight at 4° C. […] For the revelation step, a biotinylated-Axl antibody (in house product) was added at 0.85 μg/m for 1 hour at 37° C. This Axl antibody belongs to a distinct epitopic group. Then an avidin-horseradish peroxidase solution at 1/2000° in diluent buffer is added to the wells. Then the TMB substrate solution is added for 5 min. After addition of the peroxydase stop solution, the absorbance at […] was measured with a microplate reader.

B1: 1613F12 antibody (murine form) (antibody, V domains shown)
VH: EVHLQQSGAELVKPGASVKLSCTASGFNIRDTYIHWVKQRPEQGLEWIGRLDPANGHTKYGPNFQGRATMTSDTSSNTAYLQLSSLTSEDTAVYYCARGAYYYGSSGLFYFDYWGQGTTLSVSS
VL: DVQITQSPSYLATSPGETITINCRASKSISKYLAWYQEKPGKTNKLLIYSGSTLQSGVPSRFSGSGSGTDFTLTISSLEPEDFAMYFCQQHHEYPLTFGAGTELELK
notes: Whole murine monoclonal antibody purified from a hybridoma; a murine IgG1 (9G4) serves as its isotype control; also called m1613F12; monoclonal antibody 1613F12 derived from the hybridoma I-4505
- IC50 (read off the curve) [1]: ~0.02 µM
- EC50 (read off the curve) [2]: ~0.04 mg/L
